Results as given in the RNAGym collection of RNA variant scans (doi:10.1021/acssynbio.7b00057).

B1: Pistol ribozyme (parent)
chain: GGGUCGUUGUUCCAUAAUCGCGUGGAUAUGGCACGCAAGUUUCUACCGGGCACCGUAAAUGUCCGACUGGAGCCGUUCGGGCGGCUAUAAACAGACCUCAGGCCCGAAGCGUGGCGGCACCUGCCGCCGGUGGUAAAAAAGAUCGGAAGAGCACACGUCU

Variants of: B1
Test: aptazyme ON/OFF ratio, guanine; higher = stronger switching; co-transcriptional cleavage with and without guanine

Going from U7G U8A G9A U10G C12A to U7G U8A G9A U10G U11G C12A C13A, the “aptazyme ON/OFF ratio” value falls from 1.32 to 1.06.

Going from U7G U8A G9A U10G U11G C12A C13U to U7G U8A G9A U10G U11G C12A C13G, the “aptazyme ON/OFF ratio” value falls from 1.17 to 1.14.

First: U7G U8A G9A U10A U11C C12G
Second: U7G U8A G9A U10A U11C C12A
The “aptazyme ON/OFF ratio” value of the first is lower: 1.07 for the first, 1.12 for the second.

Compared with U7G U8A G9A U10A U11C C12U, U7G U8A G9C U10A is higher in “aptazyme ON/OFF ratio” value: 1.04 for the first, 1.07 for the second.

Going from U7G U8A G9C U10C to U7G U8A G9A U10G, the “aptazyme ON/OFF ratio” value falls from 2.1 to 1.49.

First: U7G U8A G9A U10C
Second: U7G U8A G9A U10C U11C C12U
The “aptazyme ON/OFF ratio” value of the first is higher: 2.73 for the first, 1.06 for the second.

Compared with U7G U8A G9A U10C U11C C12G, U7G U8A G9A U10C U11C C12A is higher in “aptazyme ON/OFF ratio” value: 1.09 for the first, 1.11 for the second.

Compared with U7G U8A G9A U11A C12G C13G, U7G U8A G9A U11A C12G C13A is higher in “aptazyme ON/OFF ratio” value: 1.09 for the first, 1.17 for the second.

First: U7G U8A G9A U11A C12G C13U
Second: U7G U8A G9A U10G U11G C12G
The “aptazyme ON/OFF ratio” value of the first is lower: 1.14 for the first, 1.24 for the second.

Going from U7G U8A G9A U10G U11G C12A to U7G U8A G9A U10G U11G C12U, the “aptazyme ON/OFF ratio” value rises from 1.14 to 1.48.

Going from U7G U8A G9C U10C C12A C13G to U7G U8A G9C U10C C12A C13U, the “aptazyme ON/OFF ratio” value falls from 1.03 to 1.01.

Going from U7G U8A G9C U10C C12A C13A to U7G U8A G9A U11A C12U C13A, the “aptazyme ON/OFF ratio” value rises from 1.07 to 1.17.

First: U7G U8A G9A U11A C12U C13U
Second: U7G U8A G9A U11A C12U C13G
The “aptazyme ON/OFF ratio” value of the first is higher: 1.06 for the first, 1.04 for the second.

Compared with U7G U8A G9C U10C C12A, U7G U8A G9C U10C C12U is higher in “aptazyme ON/OFF ratio” value: 1.02 for the first, 1.06 for the second.

Compared with U7G U8A G9C U10C C12G, U7G U8A G9C U10A U11C is lower in “aptazyme ON/OFF ratio” value: 1.07 for the first, 1.06 for the second.

Going from U7G U8A G9C U10A U11G to U7G U8A G9C U10A U11A, the “aptazyme ON/OFF ratio” value rises from 1.05 to 1.09.

First: U7G U8A G9A U10C U11A C12U C13U
Second: U7G U8A G9A U10C U11A C12U C13G
The “aptazyme ON/OFF ratio” value of the first is higher: 1.05 for the first, 1.03 for the second.

First: U7G U8A G9A U10C U11A C12U C13A
Second: U7G U8A G9C U10A C12U
The “aptazyme ON/OFF ratio” value of the first is higher: 1.09 for the first, 1.03 for the second.

Compared with U7G U8A G9C U10A C12A, U7G U8A G9C U10A C12G is lower in “aptazyme ON/OFF ratio” value: 1.03 for the first, 1.01 for the second.

Compared with U7G U8A G9A U10A U11A C12U C13U, U7G U8A G9A U10A U11A C12U C13G is lower in “aptazyme ON/OFF ratio” value: 1.19 for the first, 1.12 for the second.

Compared with U7G U8A G9A U10A U11A C12U C13A, U7G U8A G9A U11C C12A C13A is higher in “aptazyme ON/OFF ratio” value: 1.15 for the first, 1.19 for the second.

Compared with U7G U8A G9A U11C C12A C13G, U7G U8A G9A U11C C12A C13U is lower in “aptazyme ON/OFF ratio” value: 1.12 for the first, 1.1 for the second.

Compared with U7G U8A G9C U10C U11A C12U C13A, U7G U8A G9C U10C U11A C12U C13U is higher in “aptazyme ON/OFF ratio” value: 1.02 for the first, 1.03 for the second.

Going from U7G U8A G9C U10C U11A C12U C13G to U7G U8A G9A U10C U11A C12A C13A, the “aptazyme ON/OFF ratio” value rises from 1.04 to 1.2.

Compared with U7G U8A G9A U10C U11A C12A C13G, U7G U8A G9A U10C U11A C12A C13U is higher in “aptazyme ON/OFF ratio” value: 1.07 for the first, 1.13 for the second.

First: U7G U8A G9C U10A C12G C13U
Second: U7G U8A G9C U10A C12G C13G
The “aptazyme ON/OFF ratio” value of the first is lower: 1.03 for the first, 1.06 for the second.

First: U7G U8A G9C U10A C12G C13A
Second: U7G U8A G9A U10A U11C C12A C13U
The “aptazyme ON/OFF ratio” value of the first is lower: 1.04 for the first, 1.14 for the second.

Compared with U7G U8A G9A U10A U11C C12A C13A, U7G U8A G9A U10A U11C C12A C13G is lower in “aptazyme ON/OFF ratio” value: 1.15 for the first, 1.12 for the second.

Compared with U7G U8A G9A U10C U11G C12U C13G, U7G U8A G9A U10C U11G C12U C13U is lower in “aptazyme ON/OFF ratio” value: 1.14 for the first, 1.12 for the second.

Going from U7G U8A G9A U10C U11G C12U C13A to U7G U8A G9A U10C C12U C13U, the “aptazyme ON/OFF ratio” value rises from 1.1 to 1.12.

Going from U7G U8A G9A U10C C12U C13G to U7G U8A G9A U10C C12U C13A, the “aptazyme ON/OFF ratio” value rises from 1.07 to 1.08.

Compared with U7G U8A G9C U10A C12U C13A, U7G U8A G9C U10A C12U C13G is lower in “aptazyme ON/OFF ratio” value: 1.03 for the first, 0.956 for the second.

Going from U7G U8A G9C U10A C12U C13U to U7G U8A G9A U10G U11A, the “aptazyme ON/OFF ratio” value falls from 1.05 to 1.01.

Going from U7G U8A G9A U10G U11G to U7G U8A G9A U10G U11C, the “aptazyme ON/OFF ratio” value falls from 1.07 to 1.03.

Going from U7G U8A G9A U10A U11G C12G C13A to U7G U8A G9A U10A U11G C12G C13U, the “aptazyme ON/OFF ratio” value rises from 1.1 to 1.17.

Going from U7G U8A G9A U10A U11G C12G C13G to U7G U8A G9C U10A C12A C13G, the “aptazyme ON/OFF ratio” value falls from 1.12 to 1.01.

Going from U7G U8A G9C U10A C12A C13U to U7G U8A G9C U10A C12A C13A, the “aptazyme ON/OFF ratio” value falls from 1.06 to 1.05.

Going from U7G U8A G9A U10A U11C C12U C13G to U7G U8A G9A U10A U11C C12U C13A, the “aptazyme ON/OFF ratio” value falls from 1.1 to 1.07.

Going from U7G U8A G9A U10A U11C C12U C13U to U7G U8A G9A U11C C12U C13A, the “aptazyme ON/OFF ratio” value rises from 1.11 to 1.23.

Going from U7G U8A G9A U11C C12U C13G to U7G U8A G9A U11C C12U C13U, the “aptazyme ON/OFF ratio” value falls from 1.29 to 1.17.

Going from U7G U8A G9A U10G U11G C12G C13G to U7G U8A G9A U10G U11G C12G C13U, the “aptazyme ON/OFF ratio” value rises from 1.16 to 1.26.

Compared with U7G U8A G9A U10G U11G C12G C13A, U7G U8A G9A U10G U11A C13A is lower in “aptazyme ON/OFF ratio” value: 1.27 for the first, 1.06 for the second.
